Test results as given in publication PMC7857489.

What was measured:
MinD (E. coli) [1] = target: MinD (E. coli) (UniProt P0AEZ3)
FL-MinD (E. coli) = FL-MinD (E. coli) (UniProt P0AEZ3)
MinD (E. coli) [2] = target: MinD (E. coli) (UniProt P0AEZ3); remark: listed apart in the source

ClpXP, sequence (P0A6H1 whole entry): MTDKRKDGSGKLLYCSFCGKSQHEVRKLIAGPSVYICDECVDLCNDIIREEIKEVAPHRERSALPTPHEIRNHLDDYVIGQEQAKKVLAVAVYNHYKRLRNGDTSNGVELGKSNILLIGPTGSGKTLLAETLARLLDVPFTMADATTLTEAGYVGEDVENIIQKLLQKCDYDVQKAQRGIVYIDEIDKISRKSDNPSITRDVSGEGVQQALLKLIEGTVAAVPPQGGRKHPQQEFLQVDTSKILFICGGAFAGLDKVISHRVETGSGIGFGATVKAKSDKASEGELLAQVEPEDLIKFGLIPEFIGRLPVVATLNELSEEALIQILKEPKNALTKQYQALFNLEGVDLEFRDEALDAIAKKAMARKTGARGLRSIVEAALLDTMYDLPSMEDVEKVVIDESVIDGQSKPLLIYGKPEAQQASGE
ClpXP, sequence (P0A6G7 15-207): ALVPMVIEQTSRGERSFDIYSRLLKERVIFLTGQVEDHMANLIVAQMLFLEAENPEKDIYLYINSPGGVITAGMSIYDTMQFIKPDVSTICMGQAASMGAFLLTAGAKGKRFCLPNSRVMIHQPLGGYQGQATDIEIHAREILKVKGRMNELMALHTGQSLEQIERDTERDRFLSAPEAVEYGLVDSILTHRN
MinD (E. coli), sequence (P0AEZ3 whole entry): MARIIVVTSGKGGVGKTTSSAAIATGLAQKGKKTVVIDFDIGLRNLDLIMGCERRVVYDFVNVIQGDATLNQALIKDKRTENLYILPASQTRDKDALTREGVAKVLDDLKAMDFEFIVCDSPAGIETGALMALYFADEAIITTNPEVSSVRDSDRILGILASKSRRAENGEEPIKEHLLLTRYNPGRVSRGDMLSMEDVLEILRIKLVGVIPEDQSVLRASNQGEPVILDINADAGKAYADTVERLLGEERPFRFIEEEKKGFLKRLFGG
FL-MinD (E. coli), sequence (P0AEZ3 whole entry): as above

loss of full-length MinD (SDS-PAGE, Coomassie) after 3 h with MinD (6 μM), ClpX (1.0 μM), ClpP (1.2 μM) and ATP; no change when ATP or ClpP was omitted (MinD (E. coli) [1]): 45.9% | rate of degradation of fluorescent MinD (fluorescent peptides released), MinD 0-16 μM, ClpXP 0.8 μM, ATP 8 mM; rate at the plateau (FL-MinD (E. coli)): 0.08 min⁻¹ | degradation of MinD (6 μM) by ClpX (0.75 μM), ClpP (0.9 μM) with ATP, SDS-PAGE and densitometry over time (MinD (E. coli) [2]): 50%
Substance: ClpXP (from UniProt P0A6H1 1-424; P0A6G7 15-207) (complex)
